# Measurements reported in a protein production outcome set (Wang et al. 2014).
# Assay: label from the status in PepcDB records
row,Sequence,protein production
1,MDHLPMPKFGPLAGLRVVFSGIEIAGPFAGQMFAEWGAEVIWIENVAWADTIRVQPNYPQLSRRNLHALSLNIFKDEGREAFLKLMETTDIFIEASKGPAFARRGITDEVLWQHNPKLVIAHLSGFGQYGTEEYTNLPAYNTIAQAFSGYLIQNGDVDQPMPAFPYTADYFSGLTATTAALAALHKVRETGKGESIDIAMYEVMLRMGQYFMMDYFNGGEMCPRMSKGKDPYYAGCGLYKCADGYIVMELVGITQIEECFKDIGLAHLLGTPEIPEGTQLIHRIECPYGPLVEEKLDAWLATHTIAEVKERFAELNIACAKVLTVPELESNPQYVARESITQWQTMDGRTCKGPNIMPKFKNNPGQIWRGMPSHGMDTAAILKNIGYSENDIQELVSKGLAKVED,not failed
2,MDHSLNSLNNFDFLARSFARMHAEGRPVDILAVTGNMDEEHRTWFCARYAWYCQQMMQARELELEH,not failed
3,MDIEIENHPLEPFLPANARLLMLGSFPPQKKRWSMDFYYPNLNNDMWRIVGLLFFNNKDYFLNETRKAFCRERIISFLNDKGIALFDTASAIRRLQDNASDKFLEVVQPTDISRLLGQLPECKAIVTTGQKATDTLRAQFEVEEPKVGDFSEFVFDGRPVRLYRMPSSSRAYPLALDKKAAAYRTMYQDLQMLNIELEHHHHHH,not failed
4,MDIEVDIIEFKVPLENNKTIFIWDIQPTFTEAYIYESLWSVYSAFGDLYLLKVCPNATVAEPGFYALVKFYSSAQASKAQRATDKQCLFQSSPLKVRLSTKQNLSFYSSKPLCLSKCHNLANHYLGFGGWTTRIVTLKDLSNCVDAGCQEETGDQGVLLKYGCIMELSFPHHGMSCQGVGVAEEVLDSDQDPEEKLRKRGALMKRAKDKAMEVAFEKVLLLILGNGKVAIEIKIDPDEIVPEENSERVIKVNDISWTHIESADSNAEEDFLWDLTEDLPY,failed
5,MDIGRKRDVFLIILPALCAFALALIPTFRYTVPLTWDVYYHIHNATLYMGRGIVFWDPLTSAPHGRPLYYPPLFHIMLLFLSKITGLGFFTVSRFMQPVFAFLILLSFSYVSGKLYGPLAGFLTGMFLFSSLFFMRMMFPIPESLAMISIPLFVYGYYRSMECCSRLYPVLTGLLLGLMLMTHILSASIILAVVTLSTIVLYIGKYDIRPWNLLIILGSGLLLASVWYAPLIVKYGFVFRSPATSSLPLEGYITHLGVLLTILSLAGIVHAAGRREKKDVIMAVWTVFVLALTAAYLLGLKVLSDRILYFALFPMATLSANLFNSIRINNGKWSFYAIILLISLYCIYDGYSLASSIKLEVSDSELDIAEWFRYNGDHATVVVSDYHIQPAIVAVSGQPVSAGGYAPGTIRSINVEKYISSFNYTKHDIMRDRVGYIILDNEERTPPYSRLVYRNRDFSVYRVNV,failed
6,MDIHQELKELSKFLSEYSTSLMAVGVQTSRIVRNTSRIAESFGFFCDMTIFQKTIIMTLRDADNSHSYSTVNKIKPMGLNFAINSALSTLSWEAYDEHLSLSELQRRYHEIVSKPRESKWLVLILVAFANASFCRLFQGDFISMGIVFVATLAGFFVRTELMGRHWNHLAIFIISSFIASMIGSTGYLMHWGDTPDMALGTSVLYLIPGVPLINAIMDIIDGHVLAGTSRFINACLLIICIAIGLSMTLLITGISTL,failed
7,MDIIPILLLAAGQSRRMGGADKLMQEIDGMPLLRRTALRAIPVAPVIAALPPAPHPRHGALVGLTLDIVEVPDAAEGMNASLRRAVAALPPEAPAAMILLADLPDLTESDLNTVRRAVDFSQKNLIWRGATEDGQPGHPVVFHRCLFPQLLALRGDQGAQPLVRDHADRVALVPLPGQHARTDLDTPEAWADWRARQQ,failed
8,MDIITKMQVDVPRETVFEAFVDPEKIGGFWFSSSSERWEQGKTITLRYEEYDAELNINIERVEDNQLIAFTWGAHPITIQFEESEAGTVVTTTEKDFDTQDVKQLLGQKEGWVYMLSCLKVYLEHGVTIRAAILLEHHHHHH,failed
9,MDIKVSGRKTTVTDALRAHVDEKIGEALKVFDIEPMTVDVVLRYEKNPSNPNPAIVEVTARARGSVIRVAEHGADMYAAIDLSADKVTRQLRKFKTKVVDNRQGGASAADVAPVERVEDLADLLLPEEDDDLLVREKVIDVTPMTEEQALVQTDLLGHDFYVFENATTGLINVVYHRKNGGYGIIKPRIETLDE,failed
10,MDINKLKLTPDSSIKEALKIVGQERVRLGIIVDKKDKFLGVISDSNIRKALISGKTLKDSIKDIYTKNPITIKENTSKEQLLKISAKTDIYDFPVLDEKGQILSIKSISSLLKANPNSIIIMAGGLGSRLKELTKDTPKPMLKVGKKPILESIIQRLKNQNFENFIFCVNYKKQIIEDYFQKGQKFGVKISYIKERKKLGTAGALSLIKQEFKESFIVMNADILTELDFNALLKAHKKSKALMSVCVREFEQQIPYGVITQKQGFIENIEEKPTQKFLVSAGIYVLENEILNLIAKNEYLDMPELIKLVLQKGKVNTYIINDYWIDIGRPDEFLKANEDFKLEHHHHHH,not failed
11,MDINMKKHKTIQFIVAALFIASACTDDRDNLMVNDQIGLLHSTYTETEIFRGMDTPYQLFVIKSGKGKQETEVSISVDETVLQSYNTDNGTSIQLLPSDCYTILQPALRLNDSDYRKAFDIKWNADRLSDLLSTGKEYGLPIQMSVVQNFISADDERLKTIIVPTIKEPYLQMDVPGMSPVTDFMPTFGDLNERELFVKIRTNYSNDEDISFQIEVDPQLVIDYNTAHGTAYKMLPESSFTVDNKGVILTGMKETFIKIKYHKKGLIPEEGTYLFGDYVLPLRITSVSKYGISPDAASKLYTVKFQPDPIDKKGWSVIDFNNCCTQDGGWYLNMGWGVESLIDNNPGTQWLCRWDVKEPLPYYFVFDMGKEYTLFRFGFANPVAPAAHVWAGTSKAGYVEASIDNENWVKLKDWTSPKIGEPNVNMDVPATQARYIRFVITDTYPTYDGLRVSLGEVYAWGM,failed
12,MDIQNMPREQLGVCAEGNLHSVYLMFNANDNVESQLRPCIANVAQYIYELTDQYSDSAFNGFVAIGANYWDSLYPESRPEMLKPFPAMQEGNREAPAIEYDLFVHLRCDRYDILHLVANEISQMFEDLVELVEEERGFRFMDSRDLTGFVDGTENPKGRHRQEVALVGSEDPEFKGGSYIHVQKYAHNLSKWHRLPLKKQEDIIGRTKQDNIEYESEDKPLTSHIKRVNLKDENGKSIEILRQSMPYGSLKEQGLMFISTCRTPDHFEKMLHSMVFGDGAGNHDHLMHFTSALTGSSFFAPSLDFLMQFDN,not failed
13,MDIQRSILIVALAVVSYLLVLQWNKDYGQPELPAASASMNTTQGLPDTPSASGTSSDVPTAQSSAAGSEAADKPVAVSDKLIQVKTDVLDLAIDPRGGDIVQLGLLQYPRRLDRPDVPFPLFDNGRERTYLAQSGLTGADGPDASSAGRPLFRSAQSSYQLADGQNELVVDLSFSHDGVNYIKRFTFHRGLKADCSDKEKAQKKIECINENAYQVGVSYLIDNQSGKTWSGNLFAQLKRDGSADPSSTTATGVSTYLGAAVWTPDSPYKKISTKDMDKEQFKESVQGGWVAWLQHYFVTAWVPTKGEQHQVMTRKDGQGNYIVGFTGPTLSVPAGSKVETDLTLYAGPKLQKHLKELSPGLELTVDYGFLWFIAQPIFWLLQHIHSLIGNWGWSIIALTVLIKLAFFPLSAASYRSMARMRAVSPKMQAIKEQHGDDRQKMSQAMMELYKKEKINPLGGCLPILVQMPVFLSLYWVLLESVEMRQAPWLGWITDLSVKDPFFILPIVMGGTMLIQQMLNPTPPDPMQAKVMKLMPIIFTFFFLWFPAGLVLYWVVNNCLSIAQQWYITRKIEAAAKTA,failed
14,MDIRQVTETIAMIEEQNFDIRTITMGISLLDCIDPDINRAAEKIYQKITTKAANLVAVGDEIAAELGIPIVNKRVSVTPISLIGAATDATDYVVLAKALDKAAKEIGVDFIGGFSALVQKGYQKGDEILINSIPRALAETDKVCSSVNIGSTKSGINMTAVADMGRIIKETANLSDMGVAKLVVFANAVEDNPFMAGAFHGVGEADVIINVGVSGPGVVKRALEKVRGQSFDVVAETVKKTAFKITRIGQLVGQMASERLGVEFGIVDLSLAPTPAVGDSVARVLEEMGLETVGTHGTTAALALLNDQVKKGGVMACNQVGGLSGAFIPVSEDEGMIAAVQNGSLNLEKLEAMTAICSVGLDMIAIPEDTPAETIAAMIADEAAIGVINMKTTAVRIIPKGKEGDMIEFGGLLGTAPVMKVNGASSVDFISRGGQIPAPIHSFKN,not failed
